Consider 28 molecules from patent US20250236673A1 (Ablynx, published 2025).

The assay addresses T1, recombinant human CEACAM5 (human, UniProt P06731 35-685, limits assumed).
T1 construct: Immobilised by amine coupling on a CM5 chip
T1 sequence (looked up): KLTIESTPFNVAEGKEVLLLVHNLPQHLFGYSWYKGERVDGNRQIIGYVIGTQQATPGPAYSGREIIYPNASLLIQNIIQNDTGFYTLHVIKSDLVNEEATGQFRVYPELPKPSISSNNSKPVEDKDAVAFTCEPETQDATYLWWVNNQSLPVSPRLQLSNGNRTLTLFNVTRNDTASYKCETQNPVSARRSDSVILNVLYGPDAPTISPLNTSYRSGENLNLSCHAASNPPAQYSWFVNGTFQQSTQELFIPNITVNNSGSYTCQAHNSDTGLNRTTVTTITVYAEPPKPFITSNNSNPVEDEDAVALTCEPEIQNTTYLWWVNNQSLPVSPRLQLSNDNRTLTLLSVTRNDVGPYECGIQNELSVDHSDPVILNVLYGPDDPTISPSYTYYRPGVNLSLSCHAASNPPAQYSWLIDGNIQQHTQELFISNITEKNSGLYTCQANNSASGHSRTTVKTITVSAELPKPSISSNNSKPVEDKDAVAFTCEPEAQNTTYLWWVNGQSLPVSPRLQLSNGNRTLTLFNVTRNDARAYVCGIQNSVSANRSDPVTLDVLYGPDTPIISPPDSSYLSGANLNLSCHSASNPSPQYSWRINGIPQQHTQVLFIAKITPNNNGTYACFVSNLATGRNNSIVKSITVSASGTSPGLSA
As to the kind of experiment: SPR Biacore 8K+, CEACAM5 amine-coupled on CM5, ISVD analyte, 1:1 fit.

Positions count from the first letter of the chain named. Names and notes keep the numbering of the source.

B1: T028501817 (VHH)
VHH: EVQLVESGGGVVQPGGSLRLSCAASGHTFSEYALGWFRQAPGKEREFVAAINWGGGWTYYADSVKGRFTISRDNAKNTLYLQMNSLRPEDTALYYCAASSDYAGGNPTGYPYWGQGTLVTVSS
notes: also called A031500099; A0315024B02(L11V, A14P, D16G S23A, M43K, Q64K, K83R, G85E, G89L)
For orientation: Kd means a measure of binding affinity in units of concentration. Usually koff stands for the rate constant with which the complex falls apart. A word on the kon: it is the second-order rate constant of association. For the molecule B1, the Kd was determined as 8.9 nM, the koff was found to be 0.00212 s⁻¹ and the kon worked out at 238000 M⁻¹ s⁻¹.

B2: T028501820 (VHH)
VHH: B1 VHH with K43R
notes: K43R vs precursor T028501817; also called A0315024B02(M43R, Q64K, K83R)
In the case of B2, the Kd was 7.13 nM, the koff is 0.00172 s⁻¹ and the kon came to 242000 M⁻¹ s⁻¹.

B3: T028501824 (VHH)
VHH: B1 VHH with K65Q
notes: also called A0315024B02(M43K, (K64K83R))
B3: the Kd was found to be 12.2 nM, the koff turned out to be 0.00249 s⁻¹ and the kon was 205000 M⁻¹ s⁻¹.

B4: T028501821 (VHH)
VHH: B1 VHH with K43H
notes: K43H vs precursor T028501817; also called A0315024B02(M43H, Q64K, K83R)
On to B4, for which the equilibrium dissociation constant (Kd) came out at 9.11 nM, the koff is 0.00193 s⁻¹ and the kon is 212000 M⁻¹ s⁻¹.

B5: T028501828 (VHH)
VHH: B1 VHH with K76E
notes: K75E vs precursor T028501817; 38 used; also called A0315024B02(M43K, Q64K, K75E, K83R)
Take B5: the equilibrium dissociation constant (Kd) was determined as 7.51 nM, the koff amounted to 0.00203 s⁻¹ and the kon came out at 270000 M⁻¹ s⁻¹.

B6: T028501825 (VHH)
VHH: B1 VHH with K65R
notes: K64R vs precursor T028501817; also called A0315024B02(M43K, Q64R, K83R)
In the case of B6, the dissociation constant (Kd) worked out at 7.27 nM, the koff came out at 0.00241 s⁻¹ and the kon came out at 331000 M⁻¹ s⁻¹.

B7: T028501823 (VHH)
VHH: B1 VHH with K65E
notes: K64E vs precursor T028501817; also called A0315024B02(M43K, Q64E, K83R)
For the molecule B7, the Kd was 18.2 nM, the koff came to 0.00282 s⁻¹ and the on-rate (kon) came out at 155000 M⁻¹ s⁻¹.

B8: T028501818 (VHH)
VHH: B1 VHH with K43E
notes: K43E vs precursor T028501817; also called A0315024B02(M43E, Q64K, K83R)
Take B8: the Kd stood at 10.5 nM, the koff came to 0.00226 s⁻¹ and the kon turned out to be 215000 M⁻¹ s⁻¹.

B9: T028501829 (VHH)
VHH: B1 VHH with K76Q
notes: K75Q vs precursor T028501817; also called A0315024B02(M43K, Q64K, K75Q, K83R)
As to B9, the Kd is 7.14 nM, the koff stood at 0.00208 s⁻¹ and the kon was 291000 M⁻¹ s⁻¹.

B10: T028501822 (VHH)
VHH: B1 VHH with K43A
notes: K43A vs precursor T028501817; also called A0315024B02(M43A, Q64K, K83R)
In the case of B10, the Kd is 8.77 nM, the koff amounted to 0.00198 s⁻¹ and the kon amounted to 225000 M⁻¹ s⁻¹.

B11: T028501827 (VHH)
VHH: B1 VHH with K65A
notes: K64A vs precursor T028501817; also called A0315024B02(M43K, Q64A, K83R)
In the case of B11, the Kd amounted to 7.95 nM, the off-rate (koff) is 0.00235 s⁻¹ and the kon was 295000 M⁻¹ s⁻¹.

B12: T028501826 (VHH)
VHH: B1 VHH with K65H
notes: K64H vs precursor T028501817; also called A0315024B02(M43K, Q64H, K83R)
As for B12, the Kd is 8.42 nM, the koff turned out to be 0.00232 s⁻¹ and the kon came to 275000 M⁻¹ s⁻¹.

B13: T028501819 (VHH)
VHH: B1 VHH with K43Q
notes: K43Q vs precursor T028501817; also called A0315024B02(M43Q, Q64K, K83R)
As to B13, the Kd worked out at 8.74 nM, the koff came to 0.00199 s⁻¹ and the kon came out at 228000 M⁻¹ s⁻¹.

B14: T028501790 (VHH)
VHH: EVQLVESGGGVVQPGGSLRLSCAASGLTFSTYTMGWFRQAPGEEREFVAAIIWSGSNTYYADSVKGRFTISRDNAKNTVYLQMNSLRPEDTALYYCAAQHFGPIGLTTRGYHYWGQGTLVTVSS
notes: K43E vs precursor T028501789; also called A0315007E07(K43E)
With B14, the Kd came to 1.71 nM, the koff is 0.00085 s⁻¹ and the kon was determined as 498000 M⁻¹ s⁻¹.

B15: T028501795 (VHH)
VHH: B14 VHH with E43K, K65E
notes: K64E vs precursor T028501789; also called A0315007E07(K64E)
With B15, the Kd was 3.55 nM, the koff was found to be 0.000914 s⁻¹ and the kon is 258000 M⁻¹ s⁻¹.

B16: T028501800 (VHH)
VHH: B14 VHH with E43K, K76E
notes: K75E vs precursor T028501789; also called A0315007E07(K75E)
With B16, the Kd worked out at 1.72 nM, the off-rate constant (koff) is 0.000911 s⁻¹ and the association rate constant (kon) amounted to 529000 M⁻¹ s⁻¹.

B17: T028501798 (VHH)
VHH: B14 VHH with E43K, K65H
notes: K64H vs precursor T028501789; also called A0315007E07(K64H)
With B17, the Kd is 2.39 nM, the koff was 0.000962 s⁻¹ and the kon is 402000 M⁻¹ s⁻¹.

B18: T028501794 (VHH)
VHH: B14 VHH with E43A
notes: K43A (Kabat) vs precursor T028501789; also called A0315007E07(K43A)
For B18, the Kd came out at 1.54 nM, the koff turned out to be 0.000865 s⁻¹ and the kon worked out at 562000 M⁻¹ s⁻¹.

B19: T028501793 (VHH)
VHH: B14 VHH with E43H
notes: K43H vs precursor T028501789; also called A0315007E07(K43H)
Regarding B19, the Kd amounted to 1.22 nM, the koff is 0.000877 s⁻¹ and the kon is 719000 M⁻¹ s⁻¹.

B20: T028501801 (VHH)
VHH: B14 VHH with E43K, K76Q
notes: K75Q vs precursor T028501789; also called A0315007E07(K75Q)
For B20, the Kd came to 1.58 nM, the off-rate constant (koff) amounted to 0.000913 s⁻¹ and the kon was found to be 579000 M⁻¹ s⁻¹.

B21: T028501791 (VHH)
VHH: B14 VHH with E43Q
notes: K43Q vs precursor T028501789; also called A0315007E07(K43Q)
For the molecule B21, the equilibrium dissociation constant (Kd) was found to be 1.45 nM, the koff turned out to be 0.00087 s⁻¹ and the kon was found to be 602000 M⁻¹ s⁻¹.

B22: T028501792 (VHH)
VHH: B14 VHH with E43R
notes: K43R vs precursor T028501789; also called A0315007E07(K43R)
B22: the Kd was determined as 1.23 nM, the off-rate (koff) is 0.00092 s⁻¹ and the kon stood at 747000 M⁻¹ s⁻¹.

B23: T028501796 (VHH)
VHH: B14 VHH with E43K, K65Q
notes: K64Q vs precursor T028501789; also called A0315007E07(K64Q)
Turning to B23, the Kd came out at 2.24 nM, the koff was determined as 0.000929 s⁻¹ and the on-rate constant (kon) was 415000 M⁻¹ s⁻¹.

B24: T028501804 (VHH)
VHH: B14 VHH with E43K, K76A
notes: K75A vs precursor T028501789; also called A0315007E07(K75A)
As to B24, the dissociation constant (Kd) is 1.56 nM, the koff was found to be 0.000917 s⁻¹ and the kon was 586000 M⁻¹ s⁻¹.

B25: T028501797 (VHH)
VHH: B14 VHH with E43K, K65R
notes: K64R vs precursor T028501789; also called A0315007E07(K64R)
As for B25, the Kd amounted to 1.59 nM, the koff was determined as 0.00107 s⁻¹ and the association rate constant (kon) turned out to be 675000 M⁻¹ s⁻¹.

B26: T028501803 (VHH)
VHH: B14 VHH with E43K, K76H
notes: K75H vs precursor T028501789; also called A0315007E07(K75H)
Regarding B26, the Kd stood at 1.46 nM, the koff turned out to be 0.00084 s⁻¹ and the kon amounted to 574000 M⁻¹ s⁻¹.

B27: T028501802 (VHH)
VHH: B14 VHH with E43K, K76R
notes: K75R vs precursor T028501789; also called A0315007E07(K75R)
On to B27, for which the Kd was 1.39 nM, the koff is 0.000897 s⁻¹ and the kon was 643000 M⁻¹ s⁻¹.

B28: T028501799 (VHH)
VHH: B14 VHH with E43K, K65A
notes: K64A vs precursor T028501789; also called A0315007E07(K64A)
Take B28: the dissociation constant (Kd) came to 2.54 nM, the koff is 0.000976 s⁻¹ and the kon was 385000 M⁻¹ s⁻¹.
